“Also recorded” adds a separate entry of the source. Where a SMILES comes first, the peptide text is derived from it. The star is where a group is joined. Biotin = O=C1N[C@H]2[C@H](CS[C@H]2CCCCC(=O)*)N1
B1: Peptide 4 (peptide)
peptide: Biotin-LKTKIKIIVKTKSSAKLRSKLVNSHKI-OH
SMILES: CC[C@H](C)[C@H](NC(=O)[C@H](CCCCN)NC(=O)[C@H](Cc1c[nH]cn1)NC(=O)[C@H](CO)NC(=O)[C@H](CC(N)=O)NC(=O)[C@@H](NC(=O)[C@H](CC(C)C)NC(=O)[C@H](CCCCN)NC(=O)[C@H](CO)NC(=O)[C@H](CCCNC(=N)N)NC(=O)[C@H](CC(C)C)NC(=O)[C@H](CCCCN)NC(=O)[C@H](C)NC(=O)[C@H](CO)NC(=O)[C@H](CO)NC(=O)[C@H](CCCCN)NC(=O)[C@@H](NC(=O)[C@H](CCCCN)NC(=O)[C@@H](NC(=O)[C@@H](NC(=O)[C@@H](NC(=O)[C@H](CCCCN)NC(=O)[C@@H](NC(=O)[C@H](CCCCN)NC(=O)[C@@H](NC(=O)[C@H](CCCCN)NC(=O)[C@H](CC(C)C)NC(=O)CCCC[C@@H]1SC[C@@H]2NC(=O)N[C@@H]21)[C@@H](C)O)[C@@H](C)CC)[C@@H](C)CC)[C@@H](C)CC)C(C)C)[C@@H](C)O)C(C)C)C(=O)O
notes: Variant of peptide 8h-2; biotinylated synthetic peptide

Assays:
[1] = Transmission electron microscopy (TEM) of peptide nanostructures; format: physicochemical; details: for TEM characterization, Phosphate Buffered Saline (i): PBS pH 7.4, 0.5% w/v; for TEM characterization, Phosphate Buffered Saline (i) / TEM characterization, Sodium Cacodylate Buffer (ii): 30 minutes sonication, 24 hrs at 37° C.; for TEM characterization, Sodium Cacodylate Buffer (ii): 20 mM sodium cacodylate pH 7.4, 0.5% w/v
Description: The sample and stain were filter-dried in between steps. Samples were collected 24 hours at 37° C. after 30 minutes of sonication. All TEM was performed on a Philips FEI Technai Spirit G2 electron microscope. Peptides were incubated in both PBS and SC.

[2] = Circular dichroism (CD) of peptides; format: physicochemical; details: 20 mM Sodium Cacodylate; for Ellipticity ratio (222 nm/208 nm) / Ellipticity 208 nm / Ellipticity 222 nm: 1.25 mg/mL; for Ellipticity 208 nm / Ellipticity 222 nm: CD data given as [θ]M×10^−3; for wavelength Minimum of CD profile: 5.0 mg/mL
Description: Data is presented in ellipticity ([θ]M×10^−3) as a function of spectral wavelength (λ).
Sodium cacodylate (SC), 20 mM pH 7.4, without and with 20% TFE was used to reduce phosphate related background signal and enhance detected structures. Circular dichroism (CD) data were collected in millidegrees, 0, and converted to molar ellipticity, [θ]M, and are expressed in units of deg×cm^2×dmol^−1. Scan speeds and digital integration times were 500 nm/min and 1 second, respectively. The data on the Y axis of the CD plots is [θ]M×10^−3. […] Consequently, CD signals are reported in the 190-260 nm range.

[3] = system: extracellular matrix (ECM) components: Collagen type I, II, III and IV, elastin, hyaluronic acid and Geltrex; assay: ECM specificity binding test, whole panel; details: 5.0 mg/ml peptide, FIG. 4
Description: (§1) Peptides were incubated 24 hours at 37° C. on collagens I-IV, elastin, hyaluronic acid, and Geltrex. Coatings (10 pig/cm^2) were previously dried overnight in milli-Q water. Overall significance was assessed using analysis of variance, with Tukey's multiple comparison post-hoc analysis between ECM groups where n=4.
(§2) Hyaluronic acid, collagens I, II, III, and IV, elastin, and Geltrex were coated onto 96-well black plates (medium binding affinity) at 10 μg/cm^2 and were dried in milli-Q water at room temperature. N-termini biotinylated peptides were added to coated plates at 0, 1, 2.5, 5 and 10 mg/ml overnight at 37° C. in phosphate buffered saline (PBS), pH 7.4, after which the plates were washed three times with PBS. Fluorescent streptavidin-488 (4 μg/mL) was added to each well and incubated at 37° C. temperature for 24 hours, then thoroughly washed with PBS. The plates were read with a fluorescence microplate reader for fluorescence intensity (Ex 490 nm, Em 525 nm). All data were normalized to the background fluorescence intensity of Streptavidin-488.

[4] = Concentration-dependent peptide binding to hyaluronic acid coating (biotin-streptavidin fluorescence); details: for binding to hyaluronic acid with increasing concentrations of peptide (fluorescence intensity): 0-10 mg/ml peptide, PBS pH 7.4, 37° C., HA coating 10 μg/cm^2, FIG. 3; for HA binding, overall assessment: summary and discussion statements
Description: Peptides were incubated 24 hours at 37° C. Coatings (10 μg/cm^2) were previously dried overnight in milli-Q water. Overall significance was assessed using analysis of variance, with Tukey's multiple comparison post-hoc analysis between 1-scrm and experimental groups where n=4.
N-termini biotinylated peptides were added to coated plates at 0, 1, 2.5, 5 and 10 mg/ml overnight at 37° C. in phosphate buffered saline (PBS), pH 7.4, after which the plates were washed three times with PBS.

[5] = target: T1, elastin (bovine) (bovine, UniProt P04985 27-747, limits assumed); assay: plate assay: biotinylated peptide (5.0 mg/ml) on dried ECM coating, streptavidin-488 fluorescence
T1 construct: Coated and dried on plates at 10 ug/cm2
T1 sequence (looked up): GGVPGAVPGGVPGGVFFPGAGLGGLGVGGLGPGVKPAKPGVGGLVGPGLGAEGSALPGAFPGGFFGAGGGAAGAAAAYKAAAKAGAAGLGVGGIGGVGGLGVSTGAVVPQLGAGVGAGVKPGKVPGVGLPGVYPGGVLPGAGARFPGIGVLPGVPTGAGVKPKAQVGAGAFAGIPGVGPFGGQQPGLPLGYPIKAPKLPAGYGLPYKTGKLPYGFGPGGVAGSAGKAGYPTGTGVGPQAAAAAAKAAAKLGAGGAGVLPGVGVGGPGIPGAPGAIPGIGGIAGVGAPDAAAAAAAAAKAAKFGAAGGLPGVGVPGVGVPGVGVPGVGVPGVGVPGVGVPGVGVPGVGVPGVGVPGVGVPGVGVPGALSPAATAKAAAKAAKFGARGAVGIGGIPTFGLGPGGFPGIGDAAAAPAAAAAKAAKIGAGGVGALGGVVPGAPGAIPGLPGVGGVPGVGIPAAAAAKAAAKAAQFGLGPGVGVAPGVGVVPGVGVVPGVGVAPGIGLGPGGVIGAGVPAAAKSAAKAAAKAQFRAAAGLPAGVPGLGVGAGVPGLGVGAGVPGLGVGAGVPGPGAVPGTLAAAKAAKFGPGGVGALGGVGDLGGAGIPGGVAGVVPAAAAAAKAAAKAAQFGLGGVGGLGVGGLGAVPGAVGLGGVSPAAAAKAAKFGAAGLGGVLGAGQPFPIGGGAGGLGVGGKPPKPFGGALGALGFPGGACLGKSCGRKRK
Description: as §1, with “pig/cm²)” for “pig/cm^2)”
as §2, with “N-termini” for “Hyaluronic acid, collagens I, II, III, and IV, elastin, and Geltrex were coated onto 96-well black plates (medium binding affinity) at 10 μg/cm^2 and were dried in milli-Q water at room temperature. N-termini”

Molecule	TEM characterization, Phosphate Buffered Saline (i) [1]	Ellipticity ratio (222 nm/208 nm) [2]	Ellipticity 208 nm [2]	Ellipticity 222 nm [2]	wavelength Minimum of CD profile [2]	Ellipticity ratio (222 nm/208 nm) ([2]; 20% TFE)	Ellipticity 208 nm ([2]; 20% TFE)	Ellipticity 222 nm ([2]; 20% TFE)	wavelength Minimum of CD profile ([2]; 20% TFE)	TEM characterization, Sodium Cacodylate Buffer (ii) [1]	binding to the ECMs (for 17x-3: the ECMs other than hyaluronic acid) [3]	binding to hyaluronic acid with increasing concentrations of peptide (fluorescence intensity) [4]	binding to hyaluronic acid ([4]; 10 mg/ml peptide)	peptide concentrations at which increased binding to hyaluronic acid is shown ([4]; FIG. 3)	HA binding, overall assessment [4]	nanofiber formation in TEM, overall ([1]; both PBS and sodium cacodylate)	binding result [5]
ASNLTKAAKSLKVRVIKKTKQKQVLKVL [2nd de novo, five B(X7)B domains]	Structure, but no discernible striations	0.42	−115	−48.5	224-225 nm	0.90	−371	−333	221-222 nm	–	–	–	–	–	–	–	–
CC[C@H](C)[C@H](NC(=O)[C@H](CC(C)C)NC(=O)[C@H](CC(N)=O)NC(=O)[C@H](CC(C)C)NC(=O)[C@H](CCC(N)=O)NC(=O)[C@H](CC(C)C)NC(=O)[C@H](CCC(N)=O)NC(=O)[C@H](CC(C)C)NC(=O)[C@H](CCCCN)NC(=O)[C@H](CCCCN)NC(=O)[C@H](CCCCN)NC(=O)[C@H](CCCCN)NC(=O)[C@H](CCCCN)NC(=O)CCCC[C@@H]1SC[C@@H]2NC(=O)N[C@@H]21)C(=O)N[C@@H](CCCCN)C(=O)N[C@@H](CCCCN)C(=O)N[C@@H](CCCCN)C(=O)N[C@H](C(=O)N[C@@H](CCC(N)=O)C(=O)N[C@H](C(=O)N[C@@H](CO)C(=O)N[C@H](C(=O)N[C@H](C(=O)N[C@H](C(=O)N[C@H](C(=O)N[C@@H](CCCNC(=N)N)C(=O)N[C@@H](CCCNC(=N)N)C(=O)N[C@@H](Cc1c[nH]cn1)C(=O)O)C(C)C)C(C)C)C(C)C)C(C)C)C(C)C)C(C)C [Peptide 1-scrm, reference compound] (Biotin-KKKKKLQLQLNLIKKKVQVSVVVVRRH-OH)	–	–	–	–	–	–	–	–	–	No structure or fibrils	–	–	–	–	–	–	–
TQLRNKYTFLARARNALAVRTKQNIKS [BHP3, designed from 42 residue peptide BH-P]	form fibers with many striations that form larger fibers and the larger fibers tend to form a mesh network	0.79	−88.4	−70.1	226 nm	–	–	–	226 nm	–	did not show significant binding	increases dramatically	bound significantly	10 mg/mL	HA specific and robust binders	consistent nanofibers; also recorded: predominantly form fibers with striations and furthermore form a mesh network	–
LKLKSSHSIKLKVKSKQRSALVSRQKA [Peptide 6b, mPEP35 variant]	Structure with striations	–	–	–	227 nm	0.87	−229	−199	224 nm	–	–	–	–	–	–	–	–
TKTKIKIIVKLKSKAKLRIKLVKRHKS [Peptide 8h-2, modification of mPEP35]	No discernible structure.	0.42	−135	−57.3	224 nm	0.88	−283	−249	222-224 nm	No discernible structure.	–	–	–	–	proficient and specific binders	–	–
TKSKIKIVVKSKAKKLRLALVKRIKI [Peptide 6f-2, modification of mPEP35]	Structure, but no discernible striations	0.52	−97.6	−50.6	221 nm	0.84	−306	−257	221 nm	–	–	no different than the negative reference peptide	–	–	–	–	–
CC[C@H](C)[C@H](NC(=O)[C@H](CCCCN)NC(=O)[C@H](CCC(N)=O)NC(=O)[C@H](CCCCN)NC(=O)[C@H](CC(C)C)NC(=O)CCCC[C@@H]1SC[C@@H]2NC(=O)N[C@@H]21)C(=O)N[C@@H](CCCCN)C(=O)N[C@@H](Cc1c[nH]cn1)C(=O)N[C@H](C(=O)N[C@H](C(=O)N[C@@H](CCCCN)C(=O)N[C@@H](CC(C)C)C(=O)N[C@@H](CCCCN)C(=O)N[C@H](C(=O)N[C@H](C(=O)N[C@H](C(=O)N[C@@H](CCCCN)C(=O)N[C@@H](CC(C)C)C(=O)N[C@@H](CCCNC(=N)N)C(=O)N[C@@H](CO)C(=O)N[C@@H](CCC(N)=O)C(=O)N[C@@H](CC(C)C)C(=O)N[C@H](C(=O)N[C@@H](CCCCN)C(=O)N[C@@H](CCCNC(=N)N)C(=O)N[C@@H](CCCCN)C(=O)N[C@@H](CCC(N)=O)C(=O)N[C@@H](CC(N)=O)C(=O)O)C(C)C)C(C)C)C(C)C)C(C)C)C(C)C)C(C)C [mPEP35, reference compound] (Biotin-LKQKIKHVVKLKVVVKLRSQLVKRKQN-OH)	–	–	–	–	–	–	–	–	–	no fibers or structure can be observed; also recorded: No structure or fibrils	–	–	–	–	–	–	–
B1	–	–	–	–	–	–	–	–	–	–	–	–	–	–	–	–	binds

— US20250026792A1, “SELF-ASSEMBLING PEPTIDES WITH HYALURONIC ACID BINDING DOMAINS AND METHODS OF USE THEREOF” (Northwestern University, priority 2022, published 2025)
